Measured values reported in article PMC3018327 (Nature immunology, 2010).

Biological target: soluble HLA-DM, wild type (DM WT) (human) (UniProt P28067)
Assay: SPR

DR1 (DRα V65C) with disulfide-linked HA6 P2-P11 peptide (from UniProt P01903) (peptide-MHC)
Kd: 1000 nM
percent of maximal DM binding at pH 7.0: 40%
